Reference: patent US20260285997 (published 2026)
Values joined by “and” are separate entries in the source; they are usually repeats but may differ in a detail not shown here. Equal values may be shown once. Read-outs that look alike come from different tables or passages of the source.

T1: FLAG tag antigen
T1 chain: DYKDDDDK


What was measured:
FLAG-BAP [1] = target: T2, FLAG-BAP (FLAG tag fused to bacterial alkaline phosphatase); experiment: SPR
FLAG tag antigen [2] = target: T1, FLAG tag antigen; experiment: SPR bivalent
FLAG-BAP [3] = target: T2, FLAG-BAP; experiment: SPR; remark: listed apart in the source
FLAG tag antigen [4] = target: T1, FLAG tag antigen; experiment: SPR

Kd (FLAG-BAP [3])	Binder	other results
34.3 nM and 20.7 nM	V4 IgG (Anti-FLAG-M2-V4) (antibody, V domains shown) VH: QVQLVQSGAEVKKPGASVKVSCKASGYSFTTYTIHWVRQAPGQGLEWIGYINPSSGYAAYNQKFQGRVTLTADKSTSTAYMELSSLRSEDTAVYYCAREKFYGYDYWGQGTTVTVSS VL: DVVMTQSPDSLAVSLGERATINCKSSQSIVHRNGNTYLEWYQQKPGQPPKLLIYKVSNRFSGVPDRFSGSGSGTDFTLTISSLQAEDVAVYYCFQGSHVPYTFGGGTKLEIK	Kd (FLAG-BAP [1]): 34.3 nM and 20.7 nM; Kd (FLAG tag antigen [2]): 0.91 nM
27.7 nM and 23.2 nM	V7 IgG (Anti-FLAG-M2-V7) (antibody, V domains shown) VH: QVQLVQSGAEVKKPGASVKVSCKASGYSFTTYTMHWVRQAPGQGLEWMGYINPSSGYAAYNQKFQGRVTMTADKSTSTAYMELSSLRSEDTAVYYCAREKFYGYDYWGQGTTVTVSS VL: DVVMTQSPDSLAVSLGERATINCKSSQSIVHRNGNTYLEWYQLKPGQPPKLLIYKVSNRFSGVPDRFSGSGSGTDFTLTISSLQAEDVAVYYCFQGSHVPYTFGGGTKLEIK	Kd (FLAG-BAP [1]): 23.2 nM and 27.7 nM; Kd (FLAG tag antigen [2]): 1.3 nM
51.9 nM and 21.7 nM	BEAT 2a2 FLAG arm (antibody) DVVMTQSPDSLAVSLGERATINCKSSQSIVHRNGNTYLEWYQQKPGQPPKLLIYKVSNRFSGVPDRFSGSGSGTDFTLTISSLQAEDVAVYYCFQGSHVPYTFGGGTKLEIKGGGGSGGGGSGGGGSQVQLVQSGAEVKKPGASVKVSCKASGYSFTTYTIHWVRQAPGQGLEWIGYINPSSGYAAYNQKFQGRVTLTADKSTSTAYMELSSLRSEDTAVYYCAREKFYGYDYWGQGTTVTVSS	
	V7 scFv (anti-FLAG) (antibody) DVVMTQSPDSLAVSLGERATINCKSSQSIVHRNGNTYLEWYQLKPGQPPKLLIYKVSNRFSGVPDRFSGSGSGTDFTLTISSLQAEDVAVYYCFQGSHVPYTFGGGTKLEIKGGGGSGGGGSGGGGSQVQLVQSGAEVKKPGASVKVSCKASGYSFTTYTMHWVRQAPGQGLEWMGYINPSSGYAAYNQKFQGRVTMTADKSTSTAYMELSSLRSEDTAVYYCAREKFYGYDYWGQGTTVTVSS	Kd (FLAG tag antigen [4]): 15 nM
13.3 nM and 17 nM	BEAT 2a4 FLAG arm (antibody) DVVMTQSPDSLAVSLGERATINCKSSQSIVHRNGNTYLEWYQQKPGQPPKLLIYKVSNRFSGVPDRFSGSGSGTDFTLTISSLQAEDVAVYYCFQGSHVPYTFGGGTKLEIKGGGGSGGGGSGGGGSQVQLVQSGAEVKKPGASVKVSCKASGYSFTTYTIHWVRQAPGQGLEWIGYINPSSGYAAYNQKFQGRVTLTADKSTSTAYMELSSLRSEDTAVYYCAREKFYGYDYWGQGTTVTVSS	
5.13 nM and 2.63 nM and 3.04 nM	BEAT 2a3 FLAG arm (antibody) DVVMTQSPDSLAVSLGERATINCKSSQSIVHRNGNTYLEWYQQKPGQPPKLLIYKVSNRFSGVPDRFSGSGSGTDFTLTISSLQAEDVAVYYCFQGSHVPYTFGGGTKLEIKGGGGSGGGGSGGGGSQVQLVQSGAEVKKPGASVKVSCKASGYSFTTYTIHWVRQAPGQGLEWIGYINPSSGYAAYNQKFQGRVTLTADKSTSTAYMELSSLRSEDTAVYYCAREKFYGYDYWGQGTTVTVSS	
	V4 scFv (anti-FLAG) (antibody) DVVMTQSPDSLAVSLGERATINCKSSQSIVHRNGNTYLEWYQQKPGQPPKLLIYKVSNRFSGVPDRFSGSGSGTDFTLTISSLQAEDVAVYYCFQGSHVPYTFGGGTKLEIKGGGGSGGGGSGGGGSQVQLVQSGAEVKKPGASVKVSCKASGYSFTTYTIHWVRQAPGQGLEWIGYINPSSGYAAYNQKFQGRVTLTADKSTSTAYMELSSLRSEDTAVYYCAREKFYGYDYWGQGTTVTVSS	Kd (FLAG tag antigen [4]): 22 nM
19.5 nM and 18.1 nM	BEAT 2a5 FLAG arm (antibody) QVQLVQSGAEVKKPGASVKVSCKASGYSFTTYTIHWVRQAPGQGLEWIGYINPSSGYAAYNQKFQGRVTLTADKSTSTAYMELSSLRSEDTAVYYCAREKFYGYDYWGQGTTVTVSSGGGGSGGGGSGGGGSGGGGASDVVMTQSPDSLAVSLGERATINCKSSQSIVHRNGNTYLEWYQQKPGQPPKLLIYKVSNRFSGVPDRFSGSGSGTDFTLTISSLQAEDVAVYYCFQGSHVPYTFGGGTKLEIK	
35.1 nM and 32.6 nM	BEAT 2a6 FLAG arm (antibody) QVQLVQSGAEVKKPGASVKVSCKASGYSFTTYTIHWVRQAPGQGLEWIGYINPSSGYAAYNQKFQGRVTLTADKSTSTAYMELSSLRSEDTAVYYCAREKFYGYDYWGQGTTVTVSSGGGGSGGGGSGGGGSGGGGASDVVMTQSPDSLAVSLGERATINCKSSQSIVHRNGNTYLEWYQQKPGQPPKLLIYKVSNRFSGVPDRFSGSGSGTDFTLTISSLQAEDVAVYYCFQGSHVPYTFGGGTKLEIK	
10.8 nM and 9.09 nM	BEAT 2a8 FLAG arm (antibody) QVQLVQSGAEVKKPGASVKVSCKASGYSFTTYTIHWVRQAPGQGLEWIGYINPSSGYAAYNQKFQGRVTLTADKSTSTAYMELSSLRSEDTAVYYCAREKFYGYDYWGQGTTVTVSSGGGGSGGGGSGGGGSGGGGASDVVMTQSPDSLAVSLGERATINCKSSQSIVHRNGNTYLEWYQQKPGQPPKLLIYKVSNRFSGVPDRFSGSGSGTDFTLTISSLQAEDVAVYYCFQGSHVPYTFGGGTKLEIK	
	Parental anti-FLAG (chimeric) (antibody, V domains shown) VH: QVQLQQSAGELARPGASVKMSCKASGYSFTTYTIHWVKQRPGQGLEWIGYINPSSGYAAYNQNFKDETTLTADKSSSTAYMQLSSLTSEDSAVYYCAREKFYGYDYWGQGTTLTVSS VL: DVLMTQLPLSLPVSLGDQASISCRSSQSIVHRNGNTYLEWYLLKPGQSPKLLIYKVSNRFSGVPDRFSGSGSGTDFTLKISRVEAEDLGVYYCFQGSHVPYTFGGGTKLEIK	Kd (FLAG tag antigen [2]): 0.96 nM
